Test results published in patent publication EP4803546A1 (Beijing Wisdomab Biotechnology Co., Ltd, dated 2026).
Read-outs that look alike come from different tables or passages of the source.

B1: N83G3-h5 humanized single-domain antibody (Fc fusion)
VHH: EVQLVESGGGLVKPGGSLRLSCAASGASLDIYVMGWYRQAPGKGLELVAVITGSGNTNYADSVKGRFTISRDDSKNTLYLQMNSLKTEDTAVYYCAGGRPSRYYRDSGTWADFWGQGTTVTVSS
notes: also called humanized mutant N83G3-h5; humanized molecule N83G3-h5
B2: bispecific antibody 2N83G3×IMCR (bispecific antibody)
chain 1: QVQLVESGGGLVQAGGSLRLSCAASGASLDIYVMGWYRQATGKERDLVAVITGSGNTNYADSVKGRFTISRDDAKNTLYLQMSSLKPEDTAVYYCAGGRPSRYYRDSGTWADFWGQGTQVTVSSGGGGSGGGGSGGGGSQVQLVESGGGLVQAGGSLRLSCAASGASLDIYVMGWYRQATGKERDLVAVITGSGNTNYADSVKGRFTISRDDAKNTLYLQMSSLKPEDTAVYYCAGGRPSRYYRDSGTWADFWGQGTQVTVSSASERKSSVECPPCPAPEFEGGPSVFLFPPKPKDTLMISRTPEVTCVVVDVSQEDPEVQFNWYVDGVEVHNAKTKPREEQYNSTYRVVSVLTVLHQDWLNGKEYKCKVSNKALPASIEKTISKAKGQPREPQVCTLPPSQEEMTKNQVSLSCAVKGFYPSDIAVEWESNGQPENNYKTTPPVLDSDGSFFLVSKLTVDKSRWQEGNVFSCSVMHEALHNHYTQKSLSLSPGK
chain 2: not shown
notes: Arm 1 is 2N83G3-G1m3-FcH1n1 (two tandem N83G3 VHH on the hole Fc); Arm 2 is IMCR-ScFv-G1m3-FcKn1 (anti-CD3 scFv on the knob Fc); also called 2N83G3×IMCR BsAb
B3: humanized bispecific antibody 2N83G3-h5×IMCR (bispecific antibody)
chain 1: EVQLVESGGGLVKPGGSLRLSCAASGASLDIYVMGWYRQAPGKGLELVAVITGSGNTNYADSVKGRFTISRDDSKNTLYLQMNSLKTEDTAVYYCAGGRPSRYYRDSGTWADFWGQGTTVTVSSGGGGSGGGGSGGGGSEVQLVESGGGLVKPGGSLRLSCAASGASLDIYVMGWYRQAPGKGLELVAVITGSGNTNYADSVKGRFTISRDDSKNTLYLQMNSLKTEDTAVYYCAGGRPSRYYRDSGTWADFWGQGTTVTVSSASERKSSVECPPCPAPEFEGGPSVFLFPPKPKDTLMISRTPEVTCVVVDVSQEDPEVQFNWYVDGVEVHNAKTKPREEQYNSTYRVVSVLTVLHQDWLNGKEYKCKVSNKALPASIEKTISKAKGQPREPQVCTLPPSQEEMTKNQVSLSCAVKGFYPSDIAVEWESNGQPENNYKTTPPVLDSDGSFFLVSKLTVDKSRWQEGNVFSCSVMHEALHNHYTQKSLSLSPGK
chain 2: not shown
notes: Arm 1 is 2N83G3-h5-G1m3-FcH1n1 (two tandem N83G3-h5 VHH on the hole Fc); Arm 2 is IMCR-scFv-G1m3-FcKn1 (anti-CD3 scFv on the knob Fc); also called 2N83G3-h5×IMCR BsAb

Assays:
[1] = target: T1, MIP-P3-His (disulfide trap single-chain trimer of PRAME antigen peptide … and HLA-A24, His tag) (human); experiment: SPR, Biacore T200, as in Section 2.3; MIP-P3-His as analyte
T1 construct: Single polypeptide; His tag added at the C-terminus; also called dtSCT; MIP-P3-His fusion protein

[2] = target: T1, MIP-P3-His (disulfide trap single-chain …); experiment: as above; remark: listed apart in the source
[3] = target: T2, CD3 (recombinant, as analyte of Table 4) (human (homo sapiens), UniProt P07766 23-126; P04234 22-105); experiment: SPR, Biacore T200, as in Section 2.3; CD3 as analyte
T2 construct: That the analyte was a CD3E/CD3D pair is an inference; also called hCD3E; hCD3D
T2 sequence (P07766 23-126, chain 1 of 2): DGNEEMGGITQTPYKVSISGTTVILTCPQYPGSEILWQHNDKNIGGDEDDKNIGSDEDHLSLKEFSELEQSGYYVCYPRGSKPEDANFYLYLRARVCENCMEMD
T2 sequence (P04234 22-105, chain 2 of 2): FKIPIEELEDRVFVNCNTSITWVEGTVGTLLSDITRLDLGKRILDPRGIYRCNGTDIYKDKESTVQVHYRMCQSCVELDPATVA

[4] = target: HLA-A24/PRAME complex: PRAME301-309 (…) presented by HLA-A24 on cells (human; human (homo sapiens)); experiment: cell-based or functional assay
[5] = target: HLA-A24 complex with Similar Peptide Segment 8 (…, XCR1) on cells (human; human (homo sapiens)); experiment: cell-based or functional assay
[6] = target: HLA-A24 complex with Similar Peptide Segment 12 (…, CPVL) on cells (human; human (homo sapiens)); experiment: cell-based or functional assay
[7] = target: HLA-A24 complex with Similar Peptide Segment 16 (…, PLD1) on cells (human; human (homo sapiens)); experiment: cell-based or functional assay
[8] = target: HLA-A24 complex with Similar Peptide Segment 11 (…, KIFBP) on cells (human; human (homo sapiens)); experiment: cell-based or functional assay

| Binder | Kd [1] [nM] | koff [1] [s⁻¹] | kon [1] [M⁻¹ s⁻¹] | Kd [2] [nM] | koff [2] [s⁻¹] | kon [2] [M⁻¹ s⁻¹] | Kd [3] [nM] | koff [3] [s⁻¹] | kon [3] [M⁻¹ s⁻¹] | EC50 Value (nM) mediating the Activation of Jurkat-Dual Cells [4] [nM] | EC50 Value (nM) mediating the Activation of Jurkat-Dual Cells [5] [nM] | EC50 Value (nM) mediating the Activation of Jurkat-Dual Cells [6] [nM] | EC50 Value (nM) mediating the Activation of Jurkat-Dual Cells [7] [nM] | EC50 Value (nM) mediating the Activation of Jurkat-Dual Cells [8] [nM] |
| --- | --- | --- | --- | --- | --- | --- | --- | --- | --- | --- | --- | --- | --- | --- |
| B1 | 0.0747 | 5.52e-05 | 737000 |  |  |  |  |  |  |  |  |  |  |  |
| B2 |  |  |  | 0.0544 | 7.65e-05 | 1.41e+06 | 4.57 | 0.000245 | 53600 |  |  |  |  |  |
| B3 |  |  |  | 0.065 | 8.06e-05 | 1.24e+06 |  |  |  | 0.011 | 3.71 | 5.32 | 1.07 | 1.02 |
